Measurements reported in patent US20200024322A1 (Eli Lilly, published 2020).
Positions count from the first letter of the chain named.

How the values were obtained:
human GIP receptor = target: T1, human GIP receptor (human, UniProt P48546 22-466); assay: SPA, [125I]-GIP displacement, hGIPR membranes
T1 construct: whole, on cells; Used as crude membranes of stably transfected CHO cells; also called hGIPR
T1 sequence (looked up): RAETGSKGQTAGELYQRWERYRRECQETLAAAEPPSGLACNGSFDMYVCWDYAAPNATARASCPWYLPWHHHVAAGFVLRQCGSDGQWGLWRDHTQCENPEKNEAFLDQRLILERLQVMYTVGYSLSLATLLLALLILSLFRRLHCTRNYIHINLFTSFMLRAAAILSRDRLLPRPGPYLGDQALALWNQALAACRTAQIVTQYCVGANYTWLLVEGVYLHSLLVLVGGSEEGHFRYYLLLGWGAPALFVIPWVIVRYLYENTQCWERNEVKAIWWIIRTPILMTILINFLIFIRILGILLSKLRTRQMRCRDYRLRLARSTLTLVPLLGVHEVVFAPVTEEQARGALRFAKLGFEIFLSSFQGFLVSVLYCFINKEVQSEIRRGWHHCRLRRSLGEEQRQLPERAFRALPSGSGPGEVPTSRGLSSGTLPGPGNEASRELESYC

human GLP-1 receptor = target: T2, human GLP-1 receptor (human, UniProt P43220 24-463); assay: SPA, [125I]-GLP-1 displacement, hGLP-1R membranes
T2 construct: whole, on cells; Used as crude membranes of stably transfected HEK293 cells; also called hGLP1R; hGLP-1R

human glucagon receptor = target: T3, human glucagon receptor (human, UniProt P47871 26-477); assay: SPA, [125I]-Gcg displacement, hGcgR membranes
T3 construct: whole, on cells; Used as crude membranes of stably transfected HEK293 cells; also called hGcgR; hGLcgR
T3 sequence (P47871 26-477): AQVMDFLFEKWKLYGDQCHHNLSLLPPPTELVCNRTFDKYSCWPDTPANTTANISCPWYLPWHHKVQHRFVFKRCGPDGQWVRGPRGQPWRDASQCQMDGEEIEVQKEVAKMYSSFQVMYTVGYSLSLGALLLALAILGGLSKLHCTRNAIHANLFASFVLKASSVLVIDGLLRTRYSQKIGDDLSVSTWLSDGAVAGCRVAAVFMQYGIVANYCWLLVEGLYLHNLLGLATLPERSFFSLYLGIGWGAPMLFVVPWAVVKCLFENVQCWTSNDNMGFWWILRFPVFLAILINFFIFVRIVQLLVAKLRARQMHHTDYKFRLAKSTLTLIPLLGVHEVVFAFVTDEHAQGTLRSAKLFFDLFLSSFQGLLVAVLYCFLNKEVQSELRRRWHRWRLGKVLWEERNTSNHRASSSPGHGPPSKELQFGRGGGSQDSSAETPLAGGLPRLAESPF

B1: Example 68 (peptide)
peptide: YXEGTFTSDYXILLDKKAQXAFIEYLIEGGPSSGAPPPS
modifications: Aib2; αMeS11; K17((2-[2-(2-Amino-ethoxy)-ethoxy]-acetyl)2-(γ-Glu)-CO-(CH2)18-CO2H); Aib20; C-terminal NH2
Work on B1 yielded a Ki (human GIP receptor) of 0.0243 nM, a Ki (human GLP-1 receptor) of 1.58 nM and a Ki (human glucagon receptor) of 99.2 nM.

B2: Example 115 (peptide)
peptide: B1 peptide with F6X, X11S, L13X, K16E
modifications: Aib2; αMeF6; αMeL13; K17((2-[2-(2-Amino-ethoxy)-ethoxy]-acetyl)2-(γ-Glu)-CO-(CH2)18-CO2H); Aib20; C-terminal NH2
For B2, the Ki (human GIP receptor) was 0.0302 nM, the Ki (human GLP-1 receptor) was 3.43 nM and the Ki (human glucagon receptor) was 9.89 nM.

B3: Example 69 (peptide)
peptide: B1 peptide with F6X, X11S, L13X
modifications: Aib2; αMeF6; αMeL13; K17((2-[2-(2-Amino-ethoxy)-ethoxy]-acetyl)2-(γ-Glu)-CO-(CH2)18-CO2H); Aib20; C-terminal NH2
B3 was tested, and the Ki (human GIP receptor) was 0.03 nM, the Ki (human GLP-1 receptor) was 1.22 nM and the Ki (human glucagon receptor) was 22.1 nM.

B4: Example 116 (peptide)
peptide: YXEGTXTSDYSIXLDEKAQXEFIEYLIEGGPSSGAPPPS
modifications: Aib2; αMeF6; αMeL13; K17((2-[2-(2-Amino-ethoxy)-ethoxy]-acetyl)2-(γ-Glu)-CO-(CH2)18-CO2H); Aib20; C-terminal NH2
With B4 the Ki (human GIP receptor) was 0.0597 nM, the Ki (human GLP-1 receptor) was 6.8 nM and the Ki (human glucagon receptor) was 137 nM.

B5: Example 118 (peptide)
peptide: B4 peptide
modifications: Aib2; αMeF(2F)6; αMeL13; K17((2-[2-(2-Amino-ethoxy)-ethoxy]-acetyl)2-(γ-Glu)-CO-(CH2)18-CO2H); Aib20; C-terminal NH2
With B5 the Ki (human GIP receptor) was 0.0859 nM, the Ki (human GLP-1 receptor) was 6.1 nM and the Ki (human glucagon receptor) was 53 nM.

B6: Example 119 (peptide)
peptide: B4 peptide with Y1F, E21A
modifications: Aib2; αMeF6; αMeL13; K17((2-[2-(2-Amino-ethoxy)-ethoxy]-acetyl)2-(γ-Glu)-CO-(CH2)18-CO2H); Aib20; C-terminal NH2
Work on B6 yielded a Ki (human GIP receptor) of 0.0925 nM, a Ki (human GLP-1 receptor) of 9.87 nM and a Ki (human glucagon receptor) of 30.6 nM.

B7: Example 125 (peptide)
peptide: B4 peptide with E16K, E21A
modifications: Aib2; αMeF6; αMeL13; K17((2-[2-(2-Amino-ethoxy)-ethoxy]-acetyl)2-(γ-Glu)2-CO-(CH2)18-CO2H); Aib20; C-terminal NH2
B7 was tested, and the Ki (human GIP receptor) was 0.0624 nM, the Ki (human GLP-1 receptor) was 3.19 nM and the Ki (human glucagon receptor) was 54.4 nM.

B8: Example 126 (peptide)
peptide: B4 peptide with E16K, E21A, G29A
modifications: Aib2; αMeF6; αMeL13; K17((2-[2-(2-Amino-ethoxy)-ethoxy]-acetyl)2-(γ-Glu)-CO-(CH2)18-CO2H); Aib20; C-terminal NH2
B8 gave a Ki (human GIP receptor) of 0.0644 nM, a Ki (human GLP-1 receptor) of 1.46 nM and a Ki (human glucagon receptor) of 101 nM.

B9: Example 138 (peptide)
peptide: B4 peptide with E16K, E21S
modifications: Aib2; αMeF6; αMeL13; K17((2-[2-(2-Amino-ethoxy)-ethoxy]-acetyl)2-(γ-Glu)-CO-(CH2)18-CO2H); Aib20; C-terminal NH2
B9 was tested, and the Ki (human GIP receptor) was 0.0295 nM, the Ki (human GLP-1 receptor) was 0.926 nM and the Ki (human glucagon receptor) was 61.2 nM.

B10: Example 140 (peptide)
peptide: B4 peptide with E16K, E21D
modifications: Aib2; αMeF6; αMeL13; K17((2-[2-(2-Amino-ethoxy)-ethoxy]-acetyl)2-(γ-Glu)-CO-(CH2)18-CO2H); Aib20; C-terminal NH2
Binder B10 has a Ki (human GIP receptor) of 0.0474 nM, a Ki (human GLP-1 receptor) of 1.46 nM and a Ki (human glucagon receptor) of 175 nM.

B11: Example 142 (peptide)
peptide: B4 peptide with E16K, E21H
modifications: Aib2; αMeF6; αMeL13; K17((2-[2-(2-Amino-ethoxy)-ethoxy]-acetyl)2-(γ-Glu)-CO-(CH2)18-CO2H); Aib20; C-terminal NH2
In the case of B11, the Ki (human GIP receptor) is reported as 0.0275 nM, the Ki (human GLP-1 receptor) is reported as 1.06 nM and the Ki (human glucagon receptor) is reported as 53.1 nM.

B12: Example 145 (peptide)
peptide: B4 peptide with Y10A, E16K, E21A
modifications: Aib2; αMeF6; αMeL13; K17((2-[2-(2-Amino-ethoxy)-ethoxy]-acetyl)2-(γ-Glu)-CO-(CH2)18-CO2H); Aib20; C-terminal NH2
Binder B12 has a Ki (human GIP receptor) of 0.0652 nM, a Ki (human GLP-1 receptor) of 2.22 nM and a Ki (human glucagon receptor) of 158 nM.

B13: Example 149 (peptide)
peptide: B4 peptide with E24V
modifications: Aib2; αMeF(2F)6; αMeL13; K17((2-[2-(2-Amino-ethoxy)-ethoxy]-acetyl)2-(γ-Glu)-CO-(CH2)18-CO2H); Aib20; C-terminal NH2
B13 was tested, and the Ki (human GIP receptor) was 0.0708 nM, the Ki (human GLP-1 receptor) was 26.1 nM and the Ki (human glucagon receptor) was 127 nM.

B14: Example 150 (peptide)
peptide: B4 peptide with E24S
modifications: Aib2; αMeF(2F)6; αMeL13; K17((2-[2-(2-Amino-ethoxy)-ethoxy]-acetyl)2-(γ-Glu)-CO-(CH2)18-CO2H); Aib20; C-terminal NH2
B14 gave a Ki (human GIP receptor) of 0.0649 nM, a Ki (human GLP-1 receptor) of 30.5 nM and a Ki (human glucagon receptor) of 63.2 nM.
